1 molecule from PMC10037368 (2023) can be followed below.

The target in this test is Spike glycoprotein (Wuhan-Hu-1) RBD (Severe acute respiratory syndrome …, UniProt P0DTC2). As to the kind of experiment: ELISA.

B1: Sb92 sherpabody (designed binder)
chain: EEYIAVGDFFSTDPADLTFKKGEILLVIERGTSAGDGWWIAKDAKGNEGLVPRTYLEPYS
In the case of B1, the Kd turned out to be 30 nM.
